This passage reports relative transposition activity (fold vs TnsABCwt+E), activity (KmR colonies/pfu) and activity (transposition frequency) results from patent US6420524.

Common to all, as to assay: cell_activity
For series [1], the system named is TnsA+TnsB+TnsC S401YΔ402 TnsC S401Y, Δ402 (Escherichia coli (Tn7)?). Conditions: lambda hop; inhibited somewhat by TnsD.
For series [2], the target named is TnsA+TnsB+TnsC+TnsD (Escherichia coli (Tn7)?) (UniProt P13988+P13989+P05846+A0A0H2XLP6). Conditions: lambda hop.
For series [3], the system named is TnsA+TnsB+TnsC+TnsE (Escherichia coli (Tn7)?). As to conditions: lambda hop.
Series [4] relates to TnsA+TnsB+TnsC A225V TnsC A225V (Escherichia coli (Tn7)?).
The target of series [5] is TnsA+TnsB+TnsC (wild type) (Escherichia coli (Tn7)?) (UniProt P13988+P13989+P05846). As to conditions: mating-out assay.
The subject of series [6] is TnsA+TnsB+TnsC+TnsD+TnsE (Escherichia coli (Tn7)?). Conditions: mating-out assay; +/- 1.1e-4.

Turning to “E. coli chromosome target (miniTn7-KmR from lambda KK1)”, the relative transposition activity (fold vs TnsABCwt+E) in series [1] is 50; in series [4] (lambda hop, stimulated 500-fold by TnsD+attTn7) it was 8. The activity (KmR colonies/pfu) in series [2] worked out at 0.00018; in series [3], 2.2e-07.
Take pOX-G conjugable target plasmid: the activity (transposition frequency) in series [5] is less than 1e-07; in series [6] it was 0.00055; in series [4] (mating-out assay, +/- 8.1e-6), 8.8e-06.
